Results as given in patent US12448462 (dated 2025).
Like-named read-outs stand apart in the source and are kept apart here.

Experiments:
MUC1 (MUC1-C) on cells [1] = target: T1, MUC1 (MUC1-C) on cells (UniProt P15941 24-1255); assay: flow
MUC1 (MUC1-C) on cells [2] = target: T1, MUC1 (MUC1-C) on cells; assay: flow; remark: listed apart in the source

B1: T4E3 scFv-Fc (Fc fusion)
VH: QVQLVQSGGGLVQPGGSLRLSCAASGFTFDDYAMHWVRQAPGKGLEWVSGISWNSGSIGYADSVKGRFTISRDNAKNSLYLQMNSLRAEDTALYYCAKDIGSGSYYNYYYGMDVWGQGTTATISS
VL: SSELTQDPAVSVALGQTVRITCQGDSLRSYYASWYQQKPGQAPVLVIYGKNSRPSGIPDRFSGSNSGSTASLTITGAQAEDEADYYCNSRDRYGNSLVIFGGGTKLTVL
- EC50 (MUC1 (MUC1-C) on cells [1]): 0.033 µg/mL
- EC50 (MUC1 (MUC1-C) on cells [2]): 0.033 µg/mL
